From patent publication US20180282719A1 (published 2018)

T1: recombinant soluble human IL-6 receptor (SR344) (human, UniProt P08887 20-344, biotinylated (sites not given) where immobilized via streptavidin or used in phage ELISA)
T1 construct: also called soluble IL-6 receptor; membrane-type IL-6 receptor (when biotinylated and immobilized on the chip)
T1 sequence (looked up): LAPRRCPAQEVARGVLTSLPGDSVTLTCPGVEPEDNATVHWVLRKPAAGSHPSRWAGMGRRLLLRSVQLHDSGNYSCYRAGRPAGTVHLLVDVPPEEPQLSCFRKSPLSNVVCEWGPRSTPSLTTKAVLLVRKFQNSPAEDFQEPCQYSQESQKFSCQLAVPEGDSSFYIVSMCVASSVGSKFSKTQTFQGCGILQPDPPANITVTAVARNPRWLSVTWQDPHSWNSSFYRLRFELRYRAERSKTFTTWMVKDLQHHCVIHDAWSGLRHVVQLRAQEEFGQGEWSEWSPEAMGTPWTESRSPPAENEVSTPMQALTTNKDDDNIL

B1: Fv4-M58 (antibody)
heavy: QVQLQESGPGLVKPSETLSLTCAVSGHSISHDHAWSWVRQPPGEGLEWIGFISYSGITNYNPSLQGRVTISRDNSKNTLYLQMNSLRAEDTAVYYCARSLARTTAMDYWGEGTLVTVSSASTKGPSVFPLAPSSKSTSGGTAALGCLVKDYFPEPVTVSWNSGALTSGVHTFPAVLQSSGLYSLSSVVTVPSSNFGTQTYTCNVDHKPSNTKVDKTVERKSCVECPPCPAPPVAGPSVFLFPPKPKDTLMISRTPEVTCVVVDVSQEDPEVQFNWYVDGVEVHNAKTKPREEQFNSTFRVVSVLTVVHQDWLNGKEYKCKVSNKGLPAPIEKTISKTKGQPREPQVYTLPPSQEEMTKNQVSLTCLVKGFYPSDIAVEWESNGQPENNYKTTPPMLDSDGSFFLYSKLTVDKSRWQEGNVFSCSVMHEALHNHYTQKSLSLSP
light: DIQMTQSPSSLSASVGDSVTITCQASTDISSHLNWYQQKPGKAPELLIYYGSHLLSGVPSRFSGSGSGTDFTFTISSLEAEDAATYYCGQGNRLPYTFGQGTKVEIERTVAAPSVFIFPPSDEQLKSGTASVVCLLNNFYPREAKVQWKVDNALQSGNSQESVTEQDSKDSTYSLSSTLTLSKADYEKHKVYACEVTHQGLSSPVTKSFNRGEC
notes: VH3-M58 / VL3-CK
B2: Fv3-M71 (antibody, human IgG2, kappa)
heavy: QVQLQESGPGLVKPSETLSLTCAVSGHSISHDHAWSWVRQPPGEGLEWIGFISYSGITNYNPTLQGRVTISRDNSKNTLYLQMNSLRAEDTAVYYCARSLARTTAMDYWGEGTLVTVSSASTKGPSVFPLAPCSRSTSESTAALGCLVKDYFPEPVTVSWNSGALTSGVHTFPAVLQSSGLYSLSSVVTVPSSNFGTQTYTCNVDHKPSNTKVDKTVERKCCVECPPCPAPPVAGPSVFLFPPKPKDTLMISRTPEVTCVVVDVSHEDPEVQFNWYVDGVEVHNAKTKPREEQFNSTFRVVSVLTVVHQDWLNGKEYKCKVSNKGLPAPIEKTISKTKGQPREPQVYTLPPSREEMTKNQVSLTCLVKGFYPSDIAVEWESNGQPENNYKTTPPMLDSDGSFFLYSKLTVDKSRWQQGNVFSCSVMHEALHAHYTQKSLSLSPGK
light: DIQMTQSPSSLSASVGDSVTITCQASRDISSHLNWYQQKPGKAPELLIYYGSHLLSGVPSRFSGSGSGTDFTFTISSLEAEDAATYYCGQGNRLPYTFGQGTKVEIERTVAAPSVFIFPPSDEQLKSGTASVVCLLNNFYPREAKVQWKVDNALQSGNSQESVTEQDSKDSTYSLSSTLTLSKADYEKHKVYACEVTHQGLSSPVTKSFNRGEC
B3: H54/L28-IgG1 (antibody, V domains shown)
VH: QVQLQESGPGLVKPSETLSLTCAVSGYSISDDQAWSWVRQPPGEGLEWIGYISYSGITNYNPSLKGRVTISRDTSKNQFSLKLSSVTAADTAAYYCARSLARTTAMDYWGEGTLVTVSS
VL: DIQMTQSPSSLSASVGDSVTITCQASQDISSYLNWYQQKPGKAPELLIYYGSELHSGVPSRFSGSGSGTDFTFTISSLEAEDAATYYCQQGNSLPYTFGQGTKVEIE
notes: IgG1

Experiments:
[1] = molecular target: T1, recombinant soluble human IL-6 receptor …; assay: SPR Biacore T100, antibody captured by anti-IgG gamma chain F(ab)2, SR344 analyte, pH 7.4, 37 C
Experimental: (§1) Kinetic analyses of antigen-antibody reactions at pH 7.4 were carried out on the four types of antibodies, i.e., the humanized PM1 antibody (wild type: WT), and […], H3pI/L73-IgG1, Fv2-IgG1, and Fv4-IgG1 constructed in Examples 2 and 10, by using a Biacore T100™ surface plasmon resonance system (GE Healthcare) (buffer: 10 mM MES (pH 7.4), 150 mM NaCl, 0.05% TWEEN® 20 (polyoxyethelene sorbitan monolaurate)). Each antibody was bound on a sensor chip on which an anti-IgG γ chain specific F(ab)₂ (Pierce) was immobilized by amine coupling, and then, SR344 adjusted to a concentration of 9.8 to 40 nM was injected thereto as an analyte. The association to and dissociation from SR344 were observed on a real-time basis for the pH-dependent-binding clones. All the measurements were carried out at 37° C. Association rate constants kₐ (1/Ms) and dissociation rate constants kd (1/s) were calculated using Biacore T100™ Evaluation Software (GE Healthcare), and dissociation constants KD (M) were calculated on the basis of those values (Table 7).
(§2) The association to and dissociation from SR344 were observed on a real-time basis using the same method as Example 10 for the eleven types of antibodies, humanized PM1 antibody (wild type: WT) and H3pI/L73-IgG1, Fv1-M71, Fv1-M73, Fv2-IgG1, Fv3-M71, Fv3-M73, Fv4-IgG1, Fv4-IgG2, Fv4-M58, and Fv4-M73, constructed as described above. The association rate constants kₐ (1/Ms) and dissociation rate constants kd. (1/s) were calculated by analysis in the same manner, and the dissociation constants KD (M) were calculated on the basis of those values (Table 11).

[2] = molecular target: T1, recombinant soluble human IL-6 receptor …; assay: as above; remark: listed apart in the source
Experimental: as §1, §2

[3] = molecular target: T1, recombinant soluble human IL-6 receptor …; assay: SPR Biacore T100, biotinylated SR344 on streptavidin chip (model of membrane-type IL-6 receptor), antibody as analyte, 37 C
Experimental: (§3) Binding to the membrane-type IL-6 receptor was evaluated by evaluating binding to the IL-6 receptor immobilized on a sensor chip. SR344 was biotinylated in accordance with a method known among persons with ordinary skill in the art, and the biotinylated SR344 was immobilized on the sensor chip via streptavidin using the affinity between streptavidin and biotin. All the measurements were carried out at 37° C. The mobile phase buffer was 10 mM MES (pH 5.8), 150 mM NaCl and 0.05% TWEEN® 20 (polyoxyethelene sorbitan monolaurate).
(§4) The pH-dependently-binding clones were injected under the condition of pH 7.4 to allow them to bind to SR344, and then, the pH-dependent dissociation of each clone at the pH of the mobile phase, pH 5.8, was observed. The results are shown in FIG. 21 (results for Fv1-M71, Fv1-M73, Fv3-M71, and Fv3-M73 are shown in FIG. 21, while results for other clones are shown in FIGS. 17 and 19). Analyses were carried out in the same manner as in Example 10 and the pH dependencies of the dissociation rate constants of all of the eleven types of clones are shown in Table 12.

[4] = molecular target: T1, recombinant soluble human IL-6 receptor …; assay: as above; remark: listed apart in the source
Experimental: as §3, §4

[5] = molecular target: T1, recombinant soluble human IL-6 receptor …; assay: SPR Biacore T100, biotinylated SR344 on streptavidin chip (model of membrane-type IL-6 receptor), antibody as analyte, bound at pH 7.4, dissociation at pH 5.8, 37 C
Experimental: as §3, §4

[6] = molecular target: T1, recombinant soluble human IL-6 receptor …; assay: SPR Biacore T100, biotinylated SR344 on streptavidin chip (model of membrane-type IL-6 receptor), antibody as analyte, bound at pH 7.4, dissociation at pH 7.4, 37 C
Experimental: as §3, §4

[7] = molecular target: T1, recombinant soluble human IL-6 receptor …; assay: SPR Biacore T100, biotinylated SR344 on streptavidin chip (model of membrane-type IL-6 receptor), antibody as analyte, bound at pH 7.4, dissociation at pH 5.8, 37 C; remark: listed apart in the source
Experimental: as §3, §4

[8] = molecular target: T1, recombinant soluble human IL-6 receptor …; assay: SPR Biacore T100, biotinylated SR344 on streptavidin chip (model of membrane-type IL-6 receptor), antibody as analyte, bound at pH 7.4, dissociation at pH 7.4, 37 C; remark: listed apart in the source
Experimental: as §3, §4

[9] = molecular target: T1, recombinant soluble human IL-6 receptor …; assay: SPR Biacore T100, antibody on protein A/G chip, SR344 analyte, pH 5.8, 37 C
Experimental: (§5) Kinetic analysis of antigen-antibody reactions at pH 7.4 and pH 5.8 was carried out using a Biacore T100™ surface plasmon resonance system (GE Healthcare) for the four types of antibodies prepared: WT-IgG1, H54/L28-IgG1, H170/L82-IgG1, and Fv4-IgG1 (buffer: 10 mM MES (pH 7.4 or pH 5.8), 150 mM NaCl, 0.05% Surfactant P20 (polyoxyethelene sorbitan monolaurate)). The antibodies were bound to a sensor chip on which recomb-protein A/G (Pierce) was immobilized by amine coupling, and SR344 adjusted to an appropriate concentration was injected therein as an analyte. The association with and dissociation from SR344 of each type of antibody were observed on a real-time basis. All the measurements were carried out at 37° C. Association rate constants kₐ (1/Ms) and dissociation rate constants kd (1/s) were calculated using Biacore T100™ Evaluation Software (GE Healthcare), and dissociation constants KD (M) were calculated based on those values (Table 17).

[10] = molecular target: T1, recombinant soluble human IL-6 receptor …; assay: SPR Biacore T100, antibody on protein A/G chip, SR344 analyte, pH 7.4, 37 C
Experimental: as §5

[11] = molecular target: T1, recombinant soluble human IL-6 receptor …; assay: SPR Biacore T100, antibody on protein A/G chip, SR344 analyte, 37 C, ratio of pH 5.8 to pH 7.4
Experimental: as §5

| Kd [1] | koff [1] | kon [1] | Kd [2] | koff [2] | kon [2] | kd (pH 5.8)/kd (pH 7.4) [3] | kd (pH 5.8)/kd (pH 7.4) [4] | koff [5] | koff [6] | koff [7] | koff [8] | Kd [9] | koff [9] | kon [9] | Kd [10] | koff [10] | kon [10] | KD (pH 5.8)/KD (pH 7.4) [11] | kd (pH 5.8)/kd (pH 7.4) [11] | Binder |
| --- | --- | --- | --- | --- | --- | --- | --- | --- | --- | --- | --- | --- | --- | --- | --- | --- | --- | --- | --- | --- |
| 1.4 nM | 0.0011 s⁻¹ | 830000 M⁻¹ s⁻¹ | 1.4 nM | 0.0011 s⁻¹ | 830000 M⁻¹ s⁻¹ | 17.6 | 17.6 | 0.0095 s⁻¹ | 0.00054 s⁻¹ | 0.0095 s⁻¹ | 0.00054 s⁻¹ |  |  |  |  |  |  |  |  | B1 |
|  |  |  | 1.1 nM | 0.00082 s⁻¹ | 780000 M⁻¹ s⁻¹ |  | 10.7 |  |  | 0.0097 s⁻¹ | 0.00091 s⁻¹ |  |  |  |  |  |  |  |  | B2 |
|  |  |  |  |  |  |  |  |  |  |  |  | 1.1 nM | 0.0027 s⁻¹ | 2.4e+06 M⁻¹ s⁻¹ | 1.7 nM | 0.0014 s⁻¹ | 830000 M⁻¹ s⁻¹ | 0.7 | 2 | B3 |
